pKd: −log10 of the molar value.
Columns and labels:
HLA-A*01:01 = assay: IEDB peptide-MHC binding, purified MHC/direct/fluorescence; filed as Kd, often an IC50 or EC50 that approximates it; ≥ and ≤ were set here for values at or beyond the usual limits of such assays
HLA-A*02:01 = assay: as above
HLA-A*03:01 = assay: as above
HLA-A*11:01 = assay: as above
HLA-A*24:03 = assay: as above
HLA-A*26:01 = assay: as above
HLA-A*31:01 = assay: as above
HLA-A*69:01 = assay: as above
HLA-B*07:02 = assay: as above
HLA-B*08:01 = assay: as above
HLA-B*15:01 = assay: as above
HLA-B*27:05 = assay: as above
HLA-B*40:01 = assay: as above
HLA-B*44:02 = assay: as above
HLA-B*58:01 [1] = assay: as above
HLA-A*02:50 = assay: IEDB peptide-MHC binding, purified MHC/competitive/fluorescence; filed as Kd, often an IC50 or EC50 that approximates it; ≥ and ≤ were set here for values at or beyond the usual limits of such assays
HLA-B*35:01 = assay: IEDB peptide-MHC binding, purified MHC/direct/fluorescence; filed as Kd, often an IC50 or EC50 that approximates it; ≥ and ≤ were set here for values at or beyond the usual limits of such assays
HLA-B*57:01 [2] = assay: IEDB peptide-MHC binding, purified MHC/competitive/radioactivity; filed as Kd, often an IC50 or EC50 that approximates it; ≥ and ≤ were set here for values at or beyond the usual limits of such assays
HLA-B*58:01 [3] = assay: as above
HLA-B*51:01 = assay: IEDB peptide-MHC binding, purified MHC/direct/fluorescence; filed as Kd, often an IC50 or EC50 that approximates it; ≥ and ≤ were set here for values at or beyond the usual limits of such assays; conditions: source organism: Tetraodon nigroviridis
HLA-B*15:17 = assay: as above; conditions: source organism: dengue virus type 4
HLA-B*57:01 [4] = assay: as above; conditions: source organism: dengue virus type 4
HLA-A*32:07 = assay: IEDB peptide-MHC binding, purified MHC/competitive/fluorescence; filed as Kd, often an IC50 or EC50 that approximates it; ≥ and ≤ were set here for values at or beyond the usual limits of such assays; conditions: source organism: dengue virus type 4
HLA-A*32:15 = assay: as above; conditions: source organism: dengue virus type 4
HLA-A*68:23 = assay: as above; conditions: source organism: dengue virus type 4
HLA-B*15:42 = assay: as above; conditions: source organism: dengue virus type 4
HLA-B*45:06 = assay: as above; conditions: source organism: dengue virus type 4
HLA-B*83:01 = assay: as above; conditions: source organism: dengue virus type 4
HLA-C*14:02 = assay: as above; conditions: source organism: dengue virus type 4
HLA-A*32:01 = assay: IEDB peptide-MHC binding, purified MHC/competitive/radioactivity; filed as Kd, often an IC50 or EC50 that approximates it; ≥ and ≤ were set here for values at or beyond the usual limits of such assays; conditions: source organism: Dengue virus 4 Philippines/H241/1956
HLA-A*30:01 = assay: IEDB peptide-MHC binding, purified MHC/direct/fluorescence; filed as Kd, often an IC50 or EC50 that approximates it; ≥ and ≤ were set here for values at or beyond the usual limits of such assays; conditions: source organism: Giardia lamblia ATCC 50803
HLA-A*24:02 = assay: as above; conditions: source organism: Influenza A virus (A/duck/Mongolia/47/2001(H7N1))
HLA-B*18:01 = assay: as above; conditions: source organism: Influenza A virus (A/duck/Mongolia/47/2001(H7N1))
HLA-B*39:01 = assay: as above; conditions: source organism: Influenza A virus (A/duck/Mongolia/47/2001(H7N1))
HLA-B*46:01 = assay: as above; conditions: source organism: Influenza A virus (A/duck/Mongolia/47/2001(H7N1))
[5] = source organism: Brucella melitensis
[6] = source organism: Rickettsia typhi
[7] = source organism: Salmonella enterica
[8] = source organism: Dengue virus 1 Brazil/97-11/1997
[9] = source organism: Yersinia pestis
[10] = source organism: Dengue virus 2 Peru/IQT2913/1996
[11] = source organism: Vibrio parahaemolyticus
[12] = source organism: Giardia lamblia ATCC 50803
[13] = source organism: Influenza A virus (A/duck/Mongolia/47/2001(H7N1))
[14] = source organism: Camelpox virus M-96

ALFEDYPGC was tested, and the pKd (HLA-A*01:01; [5]) was no more than 4.70, the pKd (HLA-A*02:01; [5]) was 6.45 and the pKd (HLA-A*03:01; [5]) was no more than 4.70. It also gave a pKd (HLA-A*11:01; [5]) of no more than 4.70, a pKd (HLA-A*24:03; [5]) of no more than 4.70 and a pKd (HLA-A*26:01; [5]) of no more than 4.70. The pKd (HLA-A*31:01; [5]) was no more than 4.70, the pKd (HLA-A*69:01; [5]) was no more than 4.70 and the pKd (HLA-B*07:02; [5]) was no more than 4.70. It also gave a pKd (HLA-B*08:01; [5]) of no more than 4.70, a pKd (HLA-B*15:01; [5]) of no more than 4.70 and a pKd (HLA-B*27:05; [5]) of no more than 4.70. It also gave a pKd (HLA-B*40:01; [5]) of no more than 4.70, a pKd (HLA-B*44:02; [5]) of no more than 4.70 and a pKd (HLA-B*58:01 [1]; [5]) of no more than 4.70. It also gave a pKd (HLA-A*02:50; [5]) of 8.21.
For APILVVSGI, the pKd (HLA-A*01:01; [6]) was no more than 4.70, the pKd (HLA-A*02:01; [6]) was no more than 4.70 and the pKd (HLA-A*03:01; [6]) was no more than 4.70. For the same sequence, the pKd (HLA-A*11:01; [6]) was no more than 4.70, the pKd (HLA-A*24:03; [6]) was 4.83 and the pKd (HLA-A*26:01; [6]) was no more than 4.70. For the same sequence, the pKd (HLA-A*31:01; [6]) was no more than 4.70, the pKd (HLA-A*69:01; [6]) was no more than 4.70 and the pKd (HLA-B*07:02; [6]) was 6.80. It also gave a pKd (HLA-B*08:01; [6]) of no more than 4.70, a pKd (HLA-B*15:01; [6]) of no more than 4.70 and a pKd (HLA-B*27:05; [6]) of no more than 4.70. It also gave a pKd (HLA-B*35:01; [6]) of 6.54, a pKd (HLA-B*40:01; [6]) of no more than 4.70 and a pKd (HLA-B*44:02; [6]) of no more than 4.70. The pKd (HLA-B*58:01 [1]; [6]) was no more than 4.70.
ATGDYVAFV was tested, and the pKd (HLA-A*02:01; [7]) was 7.17, the pKd (HLA-A*69:01; [7]) was 7.80 and the pKd (HLA-A*02:50; source organism: Salmonella enterica subsp. enterica serovar Typhi) was 9.05.
For ATLFVWYFW, the pKd (HLA-B*57:01 [2]; [8]) was 6.94 and the pKd (HLA-B*58:01 [3]; [8]) was 6.70.
Work on GMFIIFIPI yielded a pKd (HLA-A*02:01; [9]) of 5.05, a pKd (HLA-A*69:01; [9]) of 5.27 and a pKd (HLA-A*02:50; source organism: Yersinia pestis Nepal516) of 6.40.
For LAIPVTMTL, the pKd (HLA-B*58:01 [3]; source organism: Dengue virus 4 Philippines/H241/1956) was 8.87.
For LGSQEGAMHT, the pKd (HLA-B*58:01 [3]; source organism: Dengue virus 2 Jamaica/1409/1983) was 6.26.
LPAQGLIEF was tested, and the pKd (HLA-B*51:01) was 4.95.
In the case of LTSKELMMTT, the pKd (HLA-B*57:01 [2]; [10]) was 6.61 and the pKd (HLA-B*58:01 [3]; [10]) was 6.37.
MSSAMSMMH showed a pKd (HLA-A*01:01; [11]) of 5.16, a pKd (HLA-A*02:01; [11]) of no more than 4.70 and a pKd (HLA-A*03:01; [11]) of 7.18. For the same sequence, the pKd (HLA-A*11:01; [11]) was 6.81, the pKd (HLA-A*24:03; [11]) was 5.29 and the pKd (HLA-A*26:01; [11]) was no more than 4.70. The pKd (HLA-A*69:01; [11]) was no more than 4.70, the pKd (HLA-B*07:02; [11]) was no more than 4.70 and the pKd (HLA-B*08:01; [11]) was no more than 4.70. For the same sequence, the pKd (HLA-B*15:01; [11]) was 5.59, the pKd (HLA-B*27:05; [11]) was no more than 4.70 and the pKd (HLA-B*35:01; [11]) was 7.14. For the same sequence, the pKd (HLA-B*40:01; [11]) was no more than 4.70, the pKd (HLA-B*44:02; [11]) was no more than 4.70 and the pKd (HLA-B*58:01 [1]; [11]) was 6.20.
STMPLVMAW gave a pKd (HLA-B*15:17) of no less than 9.00, a pKd (HLA-B*57:01 [4]) of 8.28 and a pKd (HLA-A*32:07) of no less than 9.00. The pKd (HLA-A*32:15) was 7.64, the pKd (HLA-A*68:23) was 9.22 and the pKd (HLA-B*15:42) was no more than 5.30. The pKd (HLA-B*45:06) was no more than 5.30, the pKd (HLA-B*83:01) was 5.94 and the pKd (HLA-C*14:02) was 7.97. It also gave a pKd (HLA-A*32:01) of 8.77.
SVKERGPAY was tested, and the pKd (HLA-A*01:01; [12]) was no more than 4.70, the pKd (HLA-A*02:01; [12]) was no more than 4.70 and the pKd (HLA-A*03:01; [12]) was 6.21. For the same sequence, the pKd (HLA-A*11:01; [12]) was 6.98, the pKd (HLA-A*26:01; [12]) was 7.61 and the pKd (HLA-A*30:01) was 7.45. For the same sequence, the pKd (HLA-A*31:01; [12]) was no more than 4.70, the pKd (HLA-A*69:01; [12]) was no more than 4.70 and the pKd (HLA-B*07:02; [12]) was no more than 4.70. It also gave a pKd (HLA-B*08:01; [12]) of no more than 4.70, a pKd (HLA-B*15:01; [12]) of 6.75 and a pKd (HLA-B*27:05; [12]) of no more than 4.70. For the same sequence, the pKd (HLA-B*35:01; [12]) was 7.40, the pKd (HLA-B*40:01; [12]) was no more than 4.70 and the pKd (HLA-B*44:02; [12]) was no more than 4.70. It also gave a pKd (HLA-B*58:01 [1]; [12]) of no more than 4.70.
In the case of THFQRKRRV, the pKd (HLA-A*01:01; [13]) was no more than 4.70, the pKd (HLA-A*02:01; [13]) was no more than 4.70 and the pKd (HLA-A*03:01; [13]) was no more than 4.70. The pKd (HLA-A*11:01; [13]) was no more than 4.70, the pKd (HLA-A*24:02) was no more than 4.70 and the pKd (HLA-A*26:01; source organism: Influenza A virus(A/swine/Henan/3/2004(H9N2))) was no more than 4.70. For the same sequence, the pKd (HLA-A*31:01; [13]) was no more than 4.70, the pKd (HLA-B*07:02; [13]) was no more than 4.70 and the pKd (HLA-B*08:01; [13]) was no more than 4.70. The pKd (HLA-B*15:01; [13]) was no more than 4.70, the pKd (HLA-B*18:01) was no more than 4.70 and the pKd (HLA-B*27:05; [13]) was no more than 4.70. For the same sequence, the pKd (HLA-B*39:01) was no more than 4.70, the pKd (HLA-B*40:01; [13]) was no more than 4.70 and the pKd (HLA-B*44:02; [13]) was no more than 4.70. The pKd (HLA-B*46:01) was no more than 4.70 and the pKd (HLA-B*58:01 [1]; [13]) was no more than 4.70.
VMCIQMKYV was tested, and the pKd (HLA-A*01:01; [14]) was no more than 4.70, the pKd (HLA-A*02:01; [14]) was no more than 4.70 and the pKd (HLA-A*03:01; [14]) was no more than 4.70. For the same sequence, the pKd (HLA-A*11:01; [14]) was no more than 4.70, the pKd (HLA-A*24:03; [14]) was no more than 4.70 and the pKd (HLA-A*26:01; [14]) was no more than 4.70. It also gave a pKd (HLA-A*31:01; [14]) of no more than 4.70, a pKd (HLA-B*07:02; [14]) of no more than 4.70 and a pKd (HLA-B*08:01; [14]) of no more than 4.70. For the same sequence, the pKd (HLA-B*15:01; [14]) was no more than 4.70, the pKd (HLA-B*27:05; [14]) was no more than 4.70 and the pKd (HLA-B*40:01; [14]) was no more than 4.70. It also gave a pKd (HLA-B*44:02; [14]) of no more than 4.70, a pKd (HLA-B*58:01 [1]; [14]) of no more than 4.70 and a pKd (HLA-A*02:50; source organism: Variola virus) of 7.74.
Sequence WMDMWESPM has a pKd (HLA-A*02:01; source organism: Escherichia coli O157:H7) of 6.00 and a pKd (HLA-A*02:50; source organism: Escherichia coli O157:H7 str. Sakai) of 9.40.
